Results on five molecules are retold here after paper PMC5772613, “Phosphorylation induced cochaperone unfolding promotes kinase recruitment and client class-specific Hsp90 phosphorylation” (Nature Communications, 2018).

What all share (conditions): both partners purified
Experiment [1] addresses T1, SH2 domain of Yes (UniProt P07947 158-255).
T1 construct: Yes, SH2 domain; Gift of Bruce Mayer (pGEX); 15N-labelled for NMR; also called Yes^SH2; SH2^Yes; source: E. coli BL21(DE3), purified (GST column, PreScission cleavage, second GST column, Superdex 75); not shown: GST, N-terminal, cleaved
The experiment can be described thus: ITC; phosphopeptide (600-750 μM, syringe) titrated into SH2 domain (50-60 μM, cell); 25 °C; 20 mM Tris, 100 mM NaCl, 0.5 mM EDTA, 1 mM TCEP; single binding site model.

Experiment [2] addresses T2, Full-length Hsp90β (UniProt P08238 1-724).
T2 construct: Hsp90β (printed as full-length Hsp90αβ1), in pET28; also called Hsp90αβ1
The experiment can be described thus: ITC; cochaperone Cdc37 (~300-400 μM, syringe) titrated into Hsp90β variants (~20-30 μM, cell); 25 °C; 20 mM Tris, 100 mM NaCl, 0.5 mM EDTA, 1 mM TCEP; single binding site model. (In general: In ITC the heat of successive injections is recorded.)

For experiment [3], the target named is T2, Full-length Hsp90β. The experiment can be described thus: SEC; analytical, Biorad Enrich SEC 650, 4 °C; 20 mM Tris pH 7.5, 100 mM NaCl, 0.5 mM EDTA, 2 mM DTT; binary mixtures 1:1 and ternary mixtures Hsp90:Cdc37:bRaf 2:1:1, incubated 15 min at 4 °C. (In gel filtration, larger molecules generally elute earlier.)

Square brackets hold non-standard residues; d marks the D form. Ends that are not written are not given here. pY = N[C@@H](Cc1ccc(OP(=O)(O)O)cc1)C(=O)O

T2 sequence (P08238 whole entry): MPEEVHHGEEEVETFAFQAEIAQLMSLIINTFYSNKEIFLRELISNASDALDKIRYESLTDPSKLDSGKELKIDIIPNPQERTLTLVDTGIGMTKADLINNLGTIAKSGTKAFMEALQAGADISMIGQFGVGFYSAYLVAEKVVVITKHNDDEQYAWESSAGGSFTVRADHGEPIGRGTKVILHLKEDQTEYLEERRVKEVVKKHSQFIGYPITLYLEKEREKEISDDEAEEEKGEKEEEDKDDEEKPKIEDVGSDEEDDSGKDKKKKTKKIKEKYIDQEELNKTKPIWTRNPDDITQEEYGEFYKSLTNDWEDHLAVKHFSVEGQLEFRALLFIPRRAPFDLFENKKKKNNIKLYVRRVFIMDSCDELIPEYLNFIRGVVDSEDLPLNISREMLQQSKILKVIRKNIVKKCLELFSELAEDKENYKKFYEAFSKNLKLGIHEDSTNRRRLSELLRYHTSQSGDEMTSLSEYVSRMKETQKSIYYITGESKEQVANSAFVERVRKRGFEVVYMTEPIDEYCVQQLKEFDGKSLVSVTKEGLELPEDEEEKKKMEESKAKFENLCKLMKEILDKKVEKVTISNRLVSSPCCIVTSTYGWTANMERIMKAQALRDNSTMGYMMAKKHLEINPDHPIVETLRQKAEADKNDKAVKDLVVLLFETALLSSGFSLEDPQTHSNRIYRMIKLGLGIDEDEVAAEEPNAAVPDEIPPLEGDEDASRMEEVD
T1 sequence (P07947 158-255): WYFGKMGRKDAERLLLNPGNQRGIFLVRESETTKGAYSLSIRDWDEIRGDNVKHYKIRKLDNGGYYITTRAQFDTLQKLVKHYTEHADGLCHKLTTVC

B1: Phosphotyrosine-modified decapeptide EVpYESLPEEL of Cdc37 (residues 296-305) (peptide)
peptide: EV[pY]ESLPEEL
notes: Cdc37, residues 296-305; also called phosphopeptide; source: synthetic peptide (GL Biochem)
Take B1: the Kd (usually the constant that tells how readily two partners part at equilibrium) in experiment [1] turned out to be 410 nM.

B2: Full-length human Cdc37 (natural protein, UniProt Q16543 1-378, looked up)
chain: MVDYSVWDHIEVSDDEDETHPNIDTASLFRWRHQARVERMEQFQKEKEELDRGCRECKRKVAECQRKLKELEVAEGGKAELERLQAEAQQLRKEERSWEQKLEEMRKKEKSMPWNVDTLSKDGFSKSMVNTKPEKTEEDSEEVREQKHKTFVEKYEKQIKHFGMLRRWDDSQKYLSDNVHLVCEETANYLVIWCIDLEVEEKCALMEQVAHQTIVMQFILELAKSLKVDPRACFRQFFTKIKTADRQYMEGFNDELEAFKERVRGRAKLRIEKAMKEYEEEERKKRLGPGGLDPVEVYESLPEELQKCFDVKDVQMLQDAISKMDPTDAKYHMQRCIDSGLWVPNSKASEAKEGEEAGPGDPLLEAVPKTGDEKDVSV
notes: Cdc37 (p50), human, full length; isotope-labelled in some NMR samples; also called p50; wild-type Cdc37
Consider B2, for which the binding result in experiment [2] is reported as “binds”.

B3: Cdc37 single phosphomimetic mutant Y4E (natural protein, human, UniProt Q16543 1-378, looked up)
chain: MVDESVWDHIEVSDDEDETHPNIDTASLFRWRHQARVERMEQFQKEKEELDRGCRECKRKVAECQRKLKELEVAEGGKAELERLQAEAQQLRKEERSWEQKLEEMRKKEKSMPWNVDTLSKDGFSKSMVNTKPEKTEEDSEEVREQKHKTFVEKYEKQIKHFGMLRRWDDSQKYLSDNVHLVCEETANYLVIWCIDLEVEEKCALMEQVAHQTIVMQFILELAKSLKVDPRACFRQFFTKIKTADRQYMEGFNDELEAFKERVRGRAKLRIEKAMKEYEEEERKKRLGPGGLDPVEVYESLPEELQKCFDVKDVQMLQDAISKMDPTDAKYHMQRCIDSGLWVPNSKASEAKEGEEAGPGDPLLEAVPKTGDEKDVSV
notes: Cdc37 (p50), human, point mutant of the full-length construct; also called Cdc37^Y4E
As to B3, in experiment [3], the binding result is recorded as “binds”.

B4: Cdc37 double-phosphomimetic mutant Y4E/Y298E (natural protein, human, UniProt Q16543 1-378, looked up)
chain: MVDESVWDHIEVSDDEDETHPNIDTASLFRWRHQARVERMEQFQKEKEELDRGCRECKRKVAECQRKLKELEVAEGGKAELERLQAEAQQLRKEERSWEQKLEEMRKKEKSMPWNVDTLSKDGFSKSMVNTKPEKTEEDSEEVREQKHKTFVEKYEKQIKHFGMLRRWDDSQKYLSDNVHLVCEETANYLVIWCIDLEVEEKCALMEQVAHQTIVMQFILELAKSLKVDPRACFRQFFTKIKTADRQYMEGFNDELEAFKERVRGRAKLRIEKAMKEYEEEERKKRLGPGGLDPVEVEESLPEELQKCFDVKDVQMLQDAISKMDPTDAKYHMQRCIDSGLWVPNSKASEAKEGEEAGPGDPLLEAVPKTGDEKDVSV
notes: Cdc37 (p50), human, double point mutant of the full-length construct; also called Cdc37^EE; C^EE
As to B4, the binding result in experiment [3] was “binds”.

B5: Full-length Cdc37 carrying the phosphomimetic mutation Y298E (natural protein, human, UniProt Q16543 1-378, looked up)
chain: MVDYSVWDHIEVSDDEDETHPNIDTASLFRWRHQARVERMEQFQKEKEELDRGCRECKRKVAECQRKLKELEVAEGGKAELERLQAEAQQLRKEERSWEQKLEEMRKKEKSMPWNVDTLSKDGFSKSMVNTKPEKTEEDSEEVREQKHKTFVEKYEKQIKHFGMLRRWDDSQKYLSDNVHLVCEETANYLVIWCIDLEVEEKCALMEQVAHQTIVMQFILELAKSLKVDPRACFRQFFTKIKTADRQYMEGFNDELEAFKERVRGRAKLRIEKAMKEYEEEERKKRLGPGGLDPVEVEESLPEELQKCFDVKDVQMLQDAISKMDPTDAKYHMQRCIDSGLWVPNSKASEAKEGEEAGPGDPLLEAVPKTGDEKDVSV
notes: Cdc37 (p50), human, full length, point mutant; Point mutants made by QuikChange; Methyl-labelled for the NMR sample with Hsp90α; also called Cdc37^Y298E
B5: in experiment [3], the binding result was “binds”.
